These results are taken from patent US20150017171A1 (CHINA SYNTHETIC RUBBER, published 2015).

Test [1] concerns the target T1, recombinant human PLVAP51-442 protein (extracellular domain, His tag removed by thrombin) (human, UniProt Q9BX97 51-442).
T1 construct: also called recombinant PLVAP protein; recombinant PLVAP
T1 sequence: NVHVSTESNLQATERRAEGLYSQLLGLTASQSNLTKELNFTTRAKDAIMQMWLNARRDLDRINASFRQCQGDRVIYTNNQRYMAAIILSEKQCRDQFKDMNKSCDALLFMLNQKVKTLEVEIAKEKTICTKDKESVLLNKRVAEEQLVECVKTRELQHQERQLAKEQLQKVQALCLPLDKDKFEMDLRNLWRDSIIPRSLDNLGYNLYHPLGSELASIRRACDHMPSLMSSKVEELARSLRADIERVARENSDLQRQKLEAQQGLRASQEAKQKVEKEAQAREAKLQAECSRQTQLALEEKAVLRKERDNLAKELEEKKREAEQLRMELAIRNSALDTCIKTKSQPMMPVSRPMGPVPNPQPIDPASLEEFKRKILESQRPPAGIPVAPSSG
Description: competition ELISA on coated recombinant PLVAP; competitor biotinylated murine KFCC-GY5. The method, then:
(§1) The binding of KFCC-GY4 and KFCC-GY5 human antibody variants to recombinant PLVAP was assessed in a competition ELISA. Either a dilution series of variant or control antibody from 30 μg/m to 0.014 μg/m (final concentration) was premixed with a constant concentration of biotinylated murine KFCC-GY4 (0.3 μg/ml, final concentration) or a dilution series of variant or control antibody from 10 μg/m to 0.004 μg/ml (final concentration) was premixed with a constant concentration of biotinylated murine KFCC-GY5 (0.1 μg/ml, final concentration) before incubating for 1 hour at room temperature on a Nunc Immuno MaxiSorp 96 well flat bottom microtitre plate (Fisher Catalogue No. DIS-971-030J) precoated with 1 μg/m recombinant “protein P” diluted in PBS. The binding of the biotinylated mAb was determined by detection with streptavidin-HRP and TMB substrate. After stopping the reaction with 3M HCl, absorbance was measured at 450 nm on a Dynex Technologies MRX TC II plate reader and the binding curves of the test antibodies compared against the mouse reference standard.
Similarly, the four lead variants of IgG4-GY5 and murine KFCC-GY5 antibodies have very similar binding profiles (FIG. 49). All of the lead variants shown are within two-fold of the original murine monoclonal antibody.
On the technique in general: ELISA stands for enzyme-linked immunosorbent assay.

In test [2] the target is T1, recombinant human PLVAP51-442 protein …. Description: competition ELISA on coated recombinant PLVAP; competitor biotinylated murine KFCC-GY4. As for the experimental part:
as §1
The five lead variants of IgG4-GY4 and murine KFCC-GY4 antibodies have very similar binding profiles (FIG. 48). All of the lead variants shown are within two-fold of the original murine monoclonal antibody.

For test [3] the target is unchanged. Put plainly: ANTQ300 quartz crystal microbalance.
For test [4], the target named is T2, His-tagged human PLVAP51-292 (human, UniProt Q9BX97 51-292).
T2 construct: also called N-terminal portion of the extracellular domain; not shown: His tag and vector residues of pET-15b
T2 sequence: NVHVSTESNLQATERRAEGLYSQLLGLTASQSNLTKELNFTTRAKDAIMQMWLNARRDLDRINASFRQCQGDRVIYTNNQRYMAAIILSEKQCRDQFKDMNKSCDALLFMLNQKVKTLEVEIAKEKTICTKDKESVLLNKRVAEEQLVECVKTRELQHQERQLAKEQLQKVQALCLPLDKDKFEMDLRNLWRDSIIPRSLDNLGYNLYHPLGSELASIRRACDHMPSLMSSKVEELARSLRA
Description: immunoblot of total protein extract of E. coli expressing the His-tagged protein. An excerpt: (§2) Molecular weight protein standards are resolved in Lane M.
Background: A western blot detects proteins with antibodies after separation by electrophoresis.

The next test deals with T3, His-tagged human CEACAM6 (human, UniProt P40199 35-320, limits assumed).
T3 construct: also called human CEACAM6 protein unrelated to PLVAP (lane 4); not shown: His tag
T3 sequence (looked up): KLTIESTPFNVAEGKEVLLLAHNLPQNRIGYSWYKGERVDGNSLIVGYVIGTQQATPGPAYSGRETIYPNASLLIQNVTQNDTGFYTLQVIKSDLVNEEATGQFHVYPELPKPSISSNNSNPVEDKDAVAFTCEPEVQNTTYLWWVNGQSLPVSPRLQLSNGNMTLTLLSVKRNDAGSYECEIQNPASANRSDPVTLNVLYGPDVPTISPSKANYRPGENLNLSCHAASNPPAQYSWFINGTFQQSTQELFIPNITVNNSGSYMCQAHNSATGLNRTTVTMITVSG
Described as above.
Text: as §2

The target of test [5] is T1, recombinant human PLVAP51-442 protein …. Put plainly: Biacore T-100. Background: Surface plasmon resonance follows binding to a sensor surface in real time, without labels.
The target is the same in test [6]. Description: competition ELISA on coated recombinant PLVAP; competitor biotinylated murine KFCC-GY4 at 0.3 µg/ml. As for the experimental part: The binding of chimeric KFCC-GY4 and KFCC-GY5 antibodies to recombinant PLVAP protein was assessed in a competition ELISA. Either a dilution series of chimeric or control antibody from 30 μg/ml to 0.014 μg/m (final concentration) was premixed with a constant concentration of biotinylated murine KFCC-GY4 (0.3 μg/ml, final concentration) or a dilution series of chimeric or control antibody from 10 μg/ml to 0.004 μg/m (final concentration) was premixed with a constant concentration of biotinylated murine KFCC-GY5 (0.1 μg/ml, final concentration) before incubating for 1 hour at room temperature on a Nunc Immuno MaxiSorp 96 well flat bottom microtitre plate (Fisher Catalogue No. DIS-971-030J) precoated with 1 μg/ml recombinant PLVAP protein diluted in PBS. The binding of the biotinylated mAb was determined by detection with streptavidin-HRP and TMB substrate.
Therefore, the correct variable region sequences for the parent murine monoclonal antibodies were identified and cloned.

B1: humanized KFCC-GY5 antibody CSR02-VH4/VK2 (antibody, human IgG4, V domains shown)
VH: QVQLVQSGSELKKPGASVKVSCKASGYTFTSNYINWVRQAPGQGLEWIGNIYPSDGFTNYNQKFKDRVTITVDKSTSTAYMELSSLRSEDTAVYYCTRNFDVWGQGTTVTVSS
VL: DVVMTQSPLSLPVTLGQPASISCRSSQSLVHSNGNTYLQWYLQKPGQSPQLLIYTVSNRFSGVPDRFSGSGSGTDFTLKISRVEAEDVGVYFCSQSTHVPFTFGQGTKLEIKR
notes: also called VH4/VK2 (GY5 variant); CSR02-VH4NK2
As to B1, in test [1], the IC50 – broadly, the concentration that gives 50% inhibition – was 0.56 µg/mL and the “IC50 (ratio compared to GY5 mAb)” value turned out to be 1.47.

B2: humanized KFCC-GY5 antibody CSR02-VH5/VK3 (antibody, human IgG4, V domains shown)
VH: QVQLVQSGSELKKPGASVKVSCKASGYTFTSNYINWVRQAPGQGLEWMGNIYPSDGFTNYNQKFKDRVTITVDKSTSTAYMELSSLRSEDTAVYYCTRNFDVWGQGTTVTVSS
VL: DVVMTQSPLSLPVTLGQPASISCRSSQSLVHSNGNTYLQWYLQKPGQSPQLLIYTVSNRFSGVPDRFSGSGSGPDFTLKISRVEAEDVGVYYCSQSTHVPFTFGQGTKLEIKR
notes: also called VH5/VK3 (GY5 variant); CSR02-VH5NK3
Consider B2, for which, in test [1], the IC50 was 0.41 µg/mL and the “IC50 (ratio compared to GY5 mAb)” value turned out to be 1.08.

B3: humanized KFCC-GY5 antibody CSR02-VH4/VK3 (antibody, human IgG4, V domains shown)
VH: QVQLVQSGSELKKPGASVKVSCKASGYTFTSNYINWVRQAPGQGLEWIGNIYPSDGFTNYNQKFKDRVTITVDKSTSTAYMELSSLRSEDTAVYYCTRNFDVWGQGTTVTVSS
VL: DVVMTQSPLSLPVTLGQPASISCRSSQSLVHSNGNTYLQWYLQKPGQSPQLLIYTVSNRFSGVPDRFSGSGSGPDFTLKISRVEAEDVGVYYCSQSTHVPFTFGQGTKLEIKR
notes: also called VH4/VK3 (GY5 variant); VH4/VK3 IgG4
Consider B3, for which, in test [1], the IC50 was 0.43 µg/mL and the “IC50 (ratio compared to GY5 mAb)” value came out at 1.13.

B4: humanized KFCC-GY5 antibody CSR02-VH5/VK2 (antibody, human IgG4, V domains shown)
VH: QVQLVQSGSELKKPGASVKVSCKASGYTFTSNYINWVRQAPGQGLEWMGNIYPSDGFTNYNQKFKDRVTITVDKSTSTAYMELSSLRSEDTAVYYCTRNFDVWGQGTTVTVSS
VL: DVVMTQSPLSLPVTLGQPASISCRSSQSLVHSNGNTYLQWYLQKPGQSPQLLIYTVSNRFSGVPDRFSGSGSGTDFTLKISRVEAEDVGVYFCSQSTHVPFTFGQGTKLEIKR
notes: also called VH5/VK2 (GY5 variant); CSR02-VH5NK2
For the molecule B4, in test [1], the IC50 was 0.6 µg/mL and the “IC50 (ratio compared to GY5 mAb)” value was found to be 1.58.

B5: humanized KFCC-GY4 antibody CSR01-VH5/VK2 (antibody, human IgG4, V domains shown)
VH: EVQLVQSGAEVKKPGASVKVSCTASGFNIKDYYIHWVRQAPGQGLEWIGWIDPENGDIEYAPKFQGRATITADTSTDTAYMELSSLRSEDTAVYYCLYQEGSWGQGTTVTVSS
VL: DVVMTQSPLSLPVTLGQPASISCKSSQSLLNSDGKTYLNWLQQRPGQSPRRLIYLVSKLDSGVPDRFTGSGSGTDFTLKISRVEAEDVGVYYCWQGTHFPFTFGGGTKVEIKR
notes: also called VH5/VK2 (GY4 variant); CSR01-VH5NK2
With B5, in test [2], the IC50 is 1.91 µg/mL and the “IC50 (ratio compared to GY4 mAb)” value was 1.05.

B6: humanized KFCC-GY4 antibody CSR01-VH5/VK3 (antibody, human IgG4, V domains shown)
VH: EVQLVQSGAEVKKPGASVKVSCTASGFNIKDYYIHWVRQAPGQGLEWIGWIDPENGDIEYAPKFQGRATITADTSTDTAYMELSSLRSEDTAVYYCLYQEGSWGQGTTVTVSS
VL: DVVMTQSPLSLPVTLGQPASISCKSSQSLLNSDGKTYLNWLQQRPGQSPRRLIYLVSKLDSGVPDRFSGSGSGTDFTLKISRVEAEDVGVYYCWQGTHFPFTFGGGTKVEIKR
notes: also called VH5/VK3 (GY4 variant); VH5/VK3 IgG4
Regarding B6, in test [2], the IC50 was determined as 2.82 µg/mL and the “IC50 (ratio compared to GY4 mAb)” value worked out at 1.55.

B7: humanized KFCC-GY4 antibody CSR01-VH5/VK1 (antibody, human IgG4, V domains shown)
VH: EVQLVQSGAEVKKPGASVKVSCTASGFNIKDYYIHWVRQAPGQGLEWIGWIDPENGDIEYAPKFQGRATITADTSTDTAYMELSSLRSEDTAVYYCLYQEGSWGQGTTVTVSS
VL: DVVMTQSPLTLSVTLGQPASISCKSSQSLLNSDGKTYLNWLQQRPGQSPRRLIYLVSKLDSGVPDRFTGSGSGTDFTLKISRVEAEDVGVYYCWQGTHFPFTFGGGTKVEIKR
notes: also called VH5/VK1 (GY4 variant); CSR01-VH5NK1
On to B7, for which, in test [2], the IC50 is 2.18 µg/mL and the “IC50 (ratio compared to GY4 mAb)” value amounted to 1.2.

B8: humanized KFCC-GY4 antibody CSR01-VH4/VK3 (antibody, human IgG4, V domains shown)
VH: EVQLVQSGAEVKKPGASVKVSCTASGFNIKDYYIHWVRQAPGQGLEWIGWIDPENGDIEYAPKFQGRATITADTSTDTAYMEFSSLRSEDTAVYYCLYQEGSWGQGTTVTVSS
VL: DVVMTQSPLSLPVTLGQPASISCKSSQSLLNSDGKTYLNWLQQRPGQSPRRLIYLVSKLDSGVPDRFSGSGSGTDFTLKISRVEAEDVGVYYCWQGTHFPFTFGGGTKVEIKR
notes: also called VH4/VK3 (GY4 variant); CSR01-VH4NK3
As for B8, in test [2], the IC50 came to 2.94 µg/mL and the “IC50 (ratio compared to GY4 mAb)” value came to 1.61.

B9: humanized KFCC-GY4 antibody CSR01-VH4/VK2 (antibody, human IgG4, V domains shown)
VH: EVQLVQSGAEVKKPGASVKVSCTASGFNIKDYYIHWVRQAPGQGLEWIGWIDPENGDIEYAPKFQGRATITADTSTDTAYMEFSSLRSEDTAVYYCLYQEGSWGQGTTVTVSS
VL: DVVMTQSPLSLPVTLGQPASISCKSSQSLLNSDGKTYLNWLQQRPGQSPRRLIYLVSKLDSGVPDRFTGSGSGTDFTLKISRVEAEDVGVYYCWQGTHFPFTFGGGTKVEIKR
notes: also called VH4/VK2 (GY4 variant); CSR01-VH4NK2
Turning to B9, in test [2], the IC50 came to 2.53 µg/mL and the “IC50 (ratio compared to GY4 mAb)” value was 1.39.

B10: KFCC-GY4 monoclonal antibody (murine, hybridoma ATCC PTA-9963) (antibody, mouse IgG1, V domains shown)
VH: EVQLQQSGAEFVRSGASVKLSCTASGFNIKDYYIHWVKQRPEQGLEWIGWIDPENGDIEYAPKFQGKATMTADTSSNTAYLQFSSLTSEDTAVYYCLYQEGSWGQGTTLTVSS
VL: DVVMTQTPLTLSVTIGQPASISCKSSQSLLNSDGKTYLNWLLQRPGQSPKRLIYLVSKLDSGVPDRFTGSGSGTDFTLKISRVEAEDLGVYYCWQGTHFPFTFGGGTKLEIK
notes: also called GY4 mAB; KFCC-GY4 mAb
Take B10: the Kd (in general, the constant that tells how readily two partners part at equilibrium) in test [3] was 60 nM. In addition, the binding result in test [4] is “no binding”. Also, in the test with His-tagged human CEACAM6, the binding result is on record as “no binding”. For the same molecule, in test [5], the Kd was 464 nM; the koff (commonly the rate constant with which the complex falls apart) is 0.00701 s⁻¹; the kon (in general, the rate constant with which the complex forms) is 15100 M⁻¹ s⁻¹. Further, in test [6], the IC50 was 0.98 µg/mL. In test [2], the IC50 came out at 1.82 µg/mL and the “IC50 (ratio compared to GY4 mAb)” value came to 1.

B11: chimeric KFCC-GY4 antibody (CSR01) (antibody, human IgG4, V domains shown)
VH: EVQLQQSGAEFVRSGASVKLSCTASGFNIKDYYIHWVKQRPEQGLEWIGWIDPENGDIEYAPKFQGKATMTADTSSNTAYLQFSSLTSEDTAVYYCLYQEGSWGQGTTLTVSS
VL: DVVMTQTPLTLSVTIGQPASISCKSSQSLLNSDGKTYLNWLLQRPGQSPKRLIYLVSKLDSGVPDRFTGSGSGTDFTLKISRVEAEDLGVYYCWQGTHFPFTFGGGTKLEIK
notes: also called Chimeric GY4; chimeric IgG4-GY4
On to B11, for which, in test [5], the Kd was 406 nM, the koff stood at 0.00212 s⁻¹ and the kon is 5210 M⁻¹ s⁻¹. The IC50 in test [6] is 0.8 µg/mL.
